This passage reports Kd and stoichiometry N results from publication PMC7261163 (Nucleic Acids Research, 2020).

One assay deals with T1, Mom (Escherichia phage Mu, UniProt P06018).
T1 sequence (P06018 12-241): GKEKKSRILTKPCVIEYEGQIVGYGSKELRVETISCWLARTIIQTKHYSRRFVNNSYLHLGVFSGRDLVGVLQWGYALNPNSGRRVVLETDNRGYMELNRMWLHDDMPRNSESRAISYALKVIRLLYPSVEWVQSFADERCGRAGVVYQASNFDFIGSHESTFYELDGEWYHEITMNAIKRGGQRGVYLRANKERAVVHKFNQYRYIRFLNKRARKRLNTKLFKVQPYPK
Briefly: microscale thermophoresis, fluorescently labelled Mom. In kind it is binding.

In assay [1] the target is Mom (bacteriophage Mu), untagged, purified (bacteriophage Mu) (UniProt P06018). Briefly: SEC.
For assay [2] the target is unchanged. The assay is described as follows: cross-linking.

In turn, `CC(=O)SCCNC(=O)CCNC(=O)[C@H](O)C(C)(C)COP(=O)(O)OP(=O)(O)OC[C@H]1O[C@@H](n2cnc3c(N)ncnc32)[C@H](O)[C@@H]1OP(=O)(O)O` [acetyl CoA] gave a dissociation constant Kd on Mom of about 49 µM. For “Mom (bacteriophage Mu), untagged, purified (from UniProt P06018 2-241) (enzyme)”, the stoichiometry N in assay [1] and in assay [2] was 2 each time.
